Experimental data taken from patent publication US20090098142A1 (published 2009).
Substitutions are numbered along the chain they refer to. Numbers in names are those of the source. One block for each binder: values may come before it.

Experiments:
[1] = molecular target: T1, cynomolgus monkey IL-13 (NHP IL-13) (cynomolgus monkey, UniProt Q5I6E4 21-132 (Macaca thibetana entry)); test: sandwich ELISA, capture antibody
T1 construct: Also used here for the IL-13 found in cynomolgus monkey serum; also called non-human primate IL-13; cynomolgus IL-13
T1 chain: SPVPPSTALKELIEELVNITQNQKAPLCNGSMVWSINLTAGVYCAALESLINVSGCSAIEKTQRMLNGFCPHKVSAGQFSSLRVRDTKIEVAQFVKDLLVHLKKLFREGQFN
Excerpt: FIG. 20 is a series of bar graphs depicting the increases in serum IL-13 levels in individual cynomolgus monkeys treated with humanized MJ2-7 (hMJ2-7v2-11). The label in each panel (e.g., 120-452) corresponds to the monkey identification number. The “pre” sample was collected prior to administration of the antibody. The time “0” was collected 24-hours post-antibody administration, but prior to Ascaris challenge. The remaining time points were post-Ascaris challenge. The assays used to detect IL-13 levels are able to detect IL-13 in the presence of hMJ2-7v2-11 or hmAb13.2v2 antibodies. More specifically, ELISA plates (MaxiSorp; Nunc, Rochester, N.Y.), were coated overnight at 4° C. with 0.5 ug/ml mAb13.2 in PBS. Plates were washed in PBS containing 0.05% Tween-20 (PBS-Tween). NHP IL-13 standards, or serum dilutions from cynomolgus monkeys, were added and incubated for 2 hours at room temperature. Plates were washed, and 0.3 ug/ml biotinylated MJ1-64 (referred to herein as C65 antibody) was added in PBS-Tween. Plates were incubated 2 hours, room temperature, washed, and binding detected using HRP-streptavidin (Southern Biotechnology Associates) and Sure Blue substrate (Kirkegaard and Perry Labs). For detection of IL-13 in the presence of mAb13.2, the same protocol was followed, excepts that ELISA plates were coated with 0.5 ug/ml MJ2-7.

native human IL-13 [2] = molecular target: T2, native human IL-13 (human, UniProt P35225 34-146); test: cell-based or functional assay
native human IL-13 [3] = molecular target: T2, native human IL-13; test: cell-based or functional assay; remark: listed apart in the source
[4] = molecular target: T1, cynomolgus monkey IL-13 (NHP IL-13); test: SPR (BIACORE), antibody captured on goat anti-human IgG Fc, NHP-IL-13 at 0.09-600 nM injected, 1:1 model, 22.5 C
Method: (§1) For kinetic analysis, the monoclonal antibody hMJ2-7 V2-11 was captured onto the anti IgG antibody surface by injecting 40 μl of a 1 μg/ml solution. The net difference between the baseline and the point approximately 30 seconds after completion of injection was taken to represent the amount of target bound. Solutions of NHP-IL-13 at 600, 200, 66.6, 22.2, 7.4, 2.5, 0.8, 0.27, 0.09 and 0 nM concentrations were injected in triplicate at a flow rate of […] for 2 minutes, and the amount of bound material as a function of time was recorded (FIG. 8). The dissociation phase was monitored in HBS/EP buffer (10 mM HEPES, pH 7.4, containing 150 mM NaCl, 3 mM EDTA and 0.005% (v/v) Surfactant P20) for 5 minutes at the same flow rate followed by two 5 μl injections of glycine, pH 1.5, to regenerate a fully active capturing surface. All kinetic experiments were done at 22.5° C. in HBS/EP buffer. Blank and buffer effects were subtracted for each sensorgram using double referencing.

[5] = molecular target: T1, cynomolgus monkey IL-13 (NHP IL-13); test: SPR (BIACORE), Kd=kd/ka from the kinetic rate constants
Method: as §1

FLAG-tagged NHP IL-13 = molecular target: T3, FLAG-tagged NHP IL-13 (cynomolgus monkey, UniProt Q5I6E4 21-132 (Macaca thibetana entry)); test: competition ELISA against biotinylated mouse MJ 2-7
T3 construct: also called NHP IL-13-FLAG; FLAG NHP IL-13; not shown: FLAG tag
T3 chain: T1 chain
Method: The ability of fully humanized MJ 2-7 mAb (V1, V2 v2) to compete with biotinylated mouse MJ 2-7 Ab for binding to NHP IL-13-FLAG was evaluated by ELISA. The microtiter plates (Costar) were coated with 1 μg/ml of anti-FLAG monoclonal antibody M2 (Sigma). The FLAG NHP IL-13 protein at concentration of 10 ng/ml was mixed with 10 ng/ml of biotin labeled mouse MJ 2-7 antibody and various concentrations of unlabeled mouse and humanized MJ 2-7 antibody. The mixture was incubated for 2 hours at room temperature and then added to the anti-FLAG antibody-coated plate. Binding of FLAG NHP-IL-13/bioMJ2-7 Ab complexes was detected with streptavidin-HRP and 3,3′,5,5′-tetramethylbenzidine (TMB). […] BIACORE™ analysis also confirmed that NHP IL-13 had rapid binding to and slow dissociation to immobilized h1uMJ 2-7 v2.11.

[6] = molecular target: T1, cynomolgus monkey IL-13 (NHP IL-13); test: cell-based or functional assay
[7] = molecular target: T4, NHP-IL-13 in a complex with immobilized sIL-13Rα2-Fc (cynomolgus monkey; human, UniProt Q14627 27-343, limits assumed); test: SPR (BIACORE), sIL-13Rα2-Fc amine-coupled to a CM5 chip, NHP-IL-13 injected, then antibody
T4 construct: not shown: human IgG1 Fc tail
Method: sIL-13Rα2-Fc was directly coated onto a CM5 chip by standard amine coupling. NHP-IL-13 at 100 nM concentration was injected, and its binding to the immobilized IL-13Rα2-Fc was detected by BIACORE™. An additional injection of 100 nM of anti IL-13 antibodies was added, and changes in binding were monitored.

[8] = molecular target: T1, cynomolgus monkey IL-13 (NHP IL-13); test: direct NHP IL-13 binding ELISA
Excerpt: The humanized MJ 2-7 V3 and V4 were produced in COS cells by combining hMJ 2-7 VH V1 with hMJ 2-7 VL V3 and V4. The antigen binding properties of the antibodies were examined by direct NHP IL-13 binding ELISA.

T2 sequence (P35225 other isoform, or with tags, fused parts or gaps): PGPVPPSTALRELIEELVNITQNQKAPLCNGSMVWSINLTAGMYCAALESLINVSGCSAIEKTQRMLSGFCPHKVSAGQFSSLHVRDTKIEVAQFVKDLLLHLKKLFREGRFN

B2: humanized MJ 2-7 V2.4 (VH V2.4 / VL V2) (antibody, V domains shown)
VH: EVQLVESGGGLVQPGGSLRLSCAASGFNIKDTYIHWVRQAPGKGLEWVGRIDPANDNIKYDPKFQGRFTISRDNAKNSLYLQMNSLRAEDTAVYYCARSEENWYDFFDYWGQGTLVTVSS
VL: DIQMTQSPSSLSASVGDRVTITCRSSQSIVHSNGNTYLEWYQQKPGKAPKLLIYKVSNRFSGVPSRFSGSGSGTDFTLTISSLQPEDFATYYCFQGSHIPYTFGGGTKVEIKR
Native hIL-13 STAT6 assay IC 50, nM (native human IL-13 [2]): 17.5 nM

B3: humanized MJ 2-7 V2.11 IgG1 with a mutated CH2 domain (antibody, V domains shown)
VH: B2 VH with V48I, R72A, L79A
VL: B2 VL
notes: VH V2.11 (back mutations V48I); A49G; R72A; L79A; human IgG1 with mutated CH2 and human kappa; also called hMJ2-7 V2-11; huMJ 2-7 V2.11
STAT6 phosphorylation assay in HT-29 cells, 0.3 ng/ml native human IL-13, IC50 (native human IL-13 [3]): 0.52 nM | koff [4]: 0.000889 s⁻¹ | kon [4]: 2.05e+07 M⁻¹ s⁻¹ | Kd [5]: 0.043 nM

B5: humanized MJ 2-7 V2.5 (VH V2.5 / VL V2) (antibody, V domains shown)
VH: B2 VH with G49A, R67K, F68A, R72A
VL: B2 VL
Native hIL-13 STAT6 assay IC 50, nM (native human IL-13 [2]): 1.75 nM

B7: humanized MJ 2-7 V2.1 (VH V2.1 / VL V2) (antibody, V domains shown)
VH: B2 VH with V48I
VL: B2 VL
Native hIL-13 STAT6 assay IC 50, nM (native human IL-13 [2]): 2.8 nM

B8: humanized MJ 2-7 V2 (CDR grafted; VH V2 / VL V2) (antibody, human IgG1, V domains shown)
VH: B2 VH with G49A
VL: B2 VL
notes: Expressed in COS cells with human IgG1 (IgG1mut) and human kappa constant regions; also called hMJ2-7 V2; huMJ 2-7 V2
binding result (FLAG-tagged NHP IL-13): binds | Native hIL-13 STAT6 assay IC 50, nM (native human IL-13 [2]): > 100 nM

B9: sIL-13Rα2-Fc (soluble human IL-13 receptor alpha2 with a human IgG1 Fc tail) (Fc fusion, UniProt Q14627 27-343, looked up, not shown: a dimerising Fc or GST)
chain: DTEIKVNPPQDFEIVDPGYLGYLYLQWQPPLSLDHFKECTVEYELKYRNIGSETWKTIITKNLHYKDGFDLNKGIEAKIHTLLPWQCTNGSEVQSSWAETTYWISPQGIPETKVQDMDCVYYNWQYLLCSWKPGIGVLLDTNYNLFYWYEGLDHALQCVDYIKADGQNIGCRFPYLEASDYKDFYICVNGSSENKPIRSSYFTFQLQNIVKPLPPVYLTFTRESSCEIKLKWSIPLGPIPARCFDYEIEIREDDTTLVTATVENETYTLKTTNETRQLCFVVRSKVNIYCSDDGIWSEWSDKQCWEGEDLSKKTLLR
STAT6 phosphorylation assay in HT-29 cells, 0.3 ng/ml native human IL-13, IC50 (native human IL-13 [3]): 0.33 nM

B11: mouse monoclonal antibody MJ 2-7 (antibody, mouse IgG1, V domains shown)
VH: EVQLQQSGAELVKPGASVKLSCTGSGFNIKDTYIHWVKQRPEQGLEWIGRIDPANDNIKYDPKFQGKATITADTSSNTAYLQLNSLTSEDTAVYYCARSEENWYDFFDYWGQGTTLTVSS
VL: DVLMTQTPLSLPVSLGDQASISCRSSQSIVHSNGNTYLEWYLQKPGQSPKLLIYKVSNRFSGVPDRFSGSGSGTDFTLKISRVEAEDLGVYYCFQGSHIPYTFGGGTKLEIK
notes: also called mAb7.1.1; murine MJ2-7
CD23 expression assay, non-human primate IL-13 at 1 ng/ml, IC50 [6]: ~0.242 nM | STAT6 phosphorylation assay in HT-29 cells, 0.3 ng/ml native human IL-13, IC50 (native human IL-13 [3]): 0.48 nM | STAT6 phosphorylation assay, native human IL-13 at 1 ng/ml, IC50 (native human IL-13 [3]): ~0.293 nM | tenascin production assay in BEAS-2B cells, 3 ng/ml native human IL-13, IC50 (native human IL-13 [3]): ~0.1 nM | binding result [7]: no binding (tested: 100 nM)

Second part, the binder after the results:

binding result [1]: binds
B1: monoclonal antibody 13.2 (mAb13.2) (antibody, mouse IgG1, V domains shown)
VH: EVKLVESGGGLVKPGGSLKLSCAASGFTFISYAMSWVRQTPEKRLEWVASISSGGNTYYPDSVKGRFTISRDNARNILYLQMSSLRSEDTAMYYCARLDGYYFGFAYWGQGTTVTVSS
VL: DIVLTQSPASLAVSLGQRATISCKASESVDNYGKSLMHWYQQKPGQSPKLLIYRASNLESGIPARFSGSGSRTDFTLTINPVEADDVATYYCQQSNEDPWTFGGGTKLEIK

Native hIL-13 STAT6 assay IC 50, nM (native human IL-13 [2]): > 100 nM
B4: humanized MJ 2-7 V2.2 (VH V2.2 / VL V2) (antibody, V domains shown)
VH: B2 VH with G49A, R67K, F68A
VL: B2 VL

Native hIL-13 STAT6 assay IC 50, nM (native human IL-13 [2]): 1.7 nM
B6: humanized MJ 2-7 V2.7 (VH V2.7 / VL V2) (antibody, V domains shown)
VH: B2 VH with R72A
VL: B2 VL

fold decrease in monocyte CD23 expression assay, 3 ng/ml NHP IL-13; activity against that of MJ2-7 and sIL-13Rα2-Fc [6]: ~20 fold | fold decrease in STAT6 phosphorylation assay in HT-29 cells, 0.3 ng/ml native human IL-13; activity against that of MJ2-7 (native human IL-13 [3]): ~20 fold
B10: mouse monoclonal antibody C65 (antibody, V domains shown)
VH: QVQLKESGPGLVAPSQSLSITCTVSGFSLTGYGVNWVRQPPGKGLEWLGIIWGDGSTDYNSALKSRLIINKDNSKSQVFLKMNSLQTDDTARYFCARDKTFYYDGFYRGRMDYWGQGTSVTVSS
VL: DVQMIQSPSSLSASLGDIVTMTCQASQGTSINLNWFQQKPGKAPKLLIFGASNLEDGVPSRFSGSRYGTNFTLTISSLEDEDMATYFCLQHSYLPWTFGGGTKLEIK

binding result [8]: no binding
B12: humanized MJ 2-7 V3 (hMJ 2-7 VH V1 with hMJ 2-7 VL V3) (antibody, V domains shown)
VH: QVQLVQSGAEVKKPGASVKVSCKASGFNIKDTYIHWVRQAPGQRLEWMGRIDPANDNIKYDPKFQGRVTITRDTSASTAYMELSSLRSEDTAVYYCARSEENWYDFFDYWGQGTLVTVSS
VL: DVVMTQSPLSLPVTLGQPASISCRSSQSLVYSDGNTYLNWFQQRPGQSPRRLIYKVSNRFSGVPDRFSGSGSGTDFTLKISRVEAEDVGVYYCFQGSHIPYTFGGGTKVEIK
notes: Produced in COS cells; VL V3: DPK18 with human germline CDR1 and CDR2 and the CDR3 of mouse MJ2-7; also called hMJ2-7 V3; Version 3
